The text below walks through data of the supplement of paper PMC5998384.

Data set [1] concerns HeLa Kyoto. As to the kind of experiment: melting temperature (median over replicates), in situ; higher = more thermally stable.
Data set [2] relates to HeLa Kyoto. The experiment in a line: solubility change mitosis vs G1/S (difference of NP-40 vs SDS log2 ratios) (log2 ratio difference); higher = more soluble in mitosis.
The subject of data set [3] is HeLa Kyoto. As to the kind of experiment: thermal stability score vs G1/S (z-score of summed log2 fold changes over temperatures); higher = more thermally stable than in G1/S.
Data set [4] relates to HeLa Kyoto. The experiment in a line: solubility in G1/S (NP-40 vs SDS abundance) (log2 ratio); higher = more soluble. Particulars: cell cycle stage: G1/S.
Where [5] appears, read: cell cycle stage: early G1 (4.5 h after nocodazole release).
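Wherever melting temperature (median over replicates), in situ is given: HeLa Kyoto cells synchronized by double thymidine or nocodazole block, proteins quantified by TMT10plex mass spectrometry, three independent biological replicates.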
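Wherever solubility change mitosis vs G1/S (difference of NP-40 vs SDS log2 ratios) is given: synchronized HeLa Kyoto cells (double thymidine block for G1/S, nocodazole release for mitosis), protein amounts in NP-40 versus SDS lysates quantified by mass spectrometry, three biological replicates.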
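Wherever solubility in G1/S (NP-40 vs SDS abundance) is given: HeLa Kyoto cells arrested at G1/S by double thymidine block, proteins quantified by TMT10plex mass spectrometry in mild NP-40 versus SDS extracts, three biological replicates.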
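Wherever thermal stability score vs G1/S (z-score of summed log2 fold changes over temperatures) is given: synchronized HeLa Kyoto cells, proteins quantified by TMT10plex mass spectrometry, three biological replicates, mitosis taken 0.5 h after nocodazole release, G1/S directly after double thymidine block.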

“MTKREAEELIEIEIDGTEKAECTEESIVEQTYAPAECVSQAIDINEPIGNLKKLLEPRLQCSLDAHEICLQDIQLDPERSLFDQGVKTDGTVQLSVQVISYQGIEPKLNILEIVKPADTVEVVIDPDAHHAESEAHLVEEAQVITLDGTKHITTISDETSEQVTRWAAALEGYRKEQERLGIPYDPIQWSTDQVLHWVVWVMKEFSMTDIDLTTLNISGRELCSLNQEDFFQRVPRGEILWSHLELLRKYVLASQEQQMNEIVTIDQPVQIIPASVQSATPTTIKVINSSAKAAKVQRAPRISGEDRSSPGNRTGNNGQIQLWQFLLELLTDKDARDCISWVGDEGEFKLNQPELVAQKWGQRKNKPTMNYEKLSRALRYYYDGDMICKVQGKRFVYKFVCDLKTLIGYSAAELNRLVTECEQKKLAKMQLHGIAQPVTAVALATASLQTEKDN [GABPA]”: the melting temperature with HeLa Kyoto [1] (cell cycle stage: G1/S) stood at 48 °C; with HeLa Kyoto [1] (cell cycle stage: mitosis), 49.9 °C. In addition, the “solubility change mitosis (log2)” value in the data set with HeLa Kyoto [2] is -0.178. Further, the thermal stability score was determined as 0.986 in the data set on HeLa Kyoto [3] (setting [5]) and 1.79 in the data set on HeLa Kyoto [3] (cell cycle stage: mitosis). Besides, in the data set with HeLa Kyoto [4], the “solubility in G1/S (log2)” value worked out at 0.0182.

Regarding “MTLDVGPEDELPDWAAAKEFYQKYDPKDVIGRGVSSVVRRCVHRATGHEFAVKIMEVTAERLSPEQLEEVREATRRETHILRQVAGHPHIITLIDSYESSSFMFLVFDLMRKGELFDYLTEKVALSEKETRSIMRSLLEAVSFLHANNIVHRDLKPENILLDDNMQIRLSDFGFSCHLEPGEKLRELCGTPGYLAPEILKCSMDETHPGYGKEVDLWACGVILFTLLAGSPPFWHRRQILMLRMIMEGQYQFSSPEWDDRSSTVKDLISRLLQVDPEARLTAEQALQHPFFERCEGSQPWNLTPRQRFRVAVWTVLAAGRVALSTHRVRPLTKNALLRDPYALRSVRHLIDNCAFRLYGHWVKKGEQQNRAALFQHRPPGPFPIMGPEEEGDSAAITEDEAVLVLG [PHKG2]”, the melting temperature in the data set on HeLa Kyoto [1] (cell cycle stage: G1/S) is 50.4 °C; in the data set on HeLa Kyoto [1] (cell cycle stage: mitosis) it was 50.7 °C. In addition, the “solubility change mitosis (log2)” value in the data set with HeLa Kyoto [2] is -0.298. Moreover, the thermal stability score in the data set on HeLa Kyoto [3] (setting [5]) was -0.266; in the data set with HeLa Kyoto [3] (cell cycle stage: mitosis), 0.0815. The “solubility in G1/S (log2)” value in the data set on HeLa Kyoto [4] was -0.0283.

As to “MTLQWAAVATFLYAEIGLILIFCLPFIPPQRWQKIFSFNVWGKIATFWNKAFLTIIILLIVLFLDAVREVRKYSSVHTIEKSSTSRPDAYEHTQMKLFRSQRNLYISGFSLFFWLVLRRLVTLITQLAKELSNKGVLKTQAENTNKAAKKFMEENEKLKRILKSHGKDEECVLEAENKKLVEDQEKLKTELRKTSDALSKAQNDVMEMKMQSERLSKEYDQLLKEHSELQDRLERGNKKRL [BCAP29]”, the melting temperature with HeLa Kyoto [1] (cell cycle stage: G1/S) came to 55.3 °C; in the data set with HeLa Kyoto [1] (cell cycle stage: mitosis) it was 52.6 °C. Besides, the “solubility change mitosis (log2)” value in the data set on HeLa Kyoto [2] is -0.00377. Also, the results for the thermal stability score with HeLa Kyoto [3] (setting [5]) and with HeLa Kyoto [3] (cell cycle stage: mitosis) were -4.11 and -5.19, respectively. For the same sequence, the “solubility in G1/S (log2)” value in the data set on HeLa Kyoto [4] is -0.242.

Consider “MTPLCPRPALCYHFLTSLLRSAMQNARGARQRAEAAVLSGPGPPLGRAAQHGIPRPLSSAGRLSQGCRGASTVGAAGWKGELPKAGGSPAPGPETPAISPSKRARPAEVGGMQLRFARLSEHATAPTRGSARAAGYDLYSAYDYTIPPMEKAVVKTDIQIALPSGCYGRVAPRSGLAAKHFIDVGAGVIDEDYRGNVGVVLFNFGKEKFEVKKGDRIAQLICERIFYPEIEEVQALDDTERGSGGFGSTGKN [DUT]”, for which the figures for the melting temperature in the data set on HeLa Kyoto [1] (cell cycle stage: G1/S) and in the data set on HeLa Kyoto [1] (cell cycle stage: mitosis) were 53.2 °C and 53.5 °C, respectively. For the same sequence, the “solubility change mitosis (log2)” value with HeLa Kyoto [2] is -0.0703. Also, the thermal stability score was 0.243 in the data set with HeLa Kyoto [3] (setting [5]) and -0.204 in the data set on HeLa Kyoto [3] (cell cycle stage: mitosis). Besides, the “solubility in G1/S (log2)” value with HeLa Kyoto [4] came to 0.483.

As to “MTPPPPPPPPPGPDPAADPAADPCPWPGSLVVLFGATAGALGRDLGSDETDLILLVWQVVEPRSRQVGTLHKSLVRAEAAALSTQCREASGLSADSLARAEPLDKVLQQFSQLVNGDVALLGGGPYMLCTDGQQLLRQVLHPEASRKNLVLPDMFFSFYDLRREFHMQHPSTCPARDLTVATMAQGLGLETDATEDDFGVWEVKTMVAVILHLLKEPSSQLFSKPEVIKQKYETGPCSDSTVPCPYSSKADVVDSETVVRARGLPWQSSDQDVARFFKGLNVARGGVALCLNAQGRRNGEALIRFVDSEQRDLALQRHKHHMGVRYIEVYKATGEEFVKIAGGTSLEVARFLSREDQVILRLRGLPFSAGPTDVLGFLGPECPVTGGTEGLLFVRHPDGRPTGDAFALFACEELAQAALRRHKGMLGKRYIELFRSTAAEVQQVLNRYASGPLLPTLTAPLLPIPFPLAPGTGRDCVRLRGLPYTATIEDILSFLGEAAADIRPHGVHMVLNQQGRPSGDAFIQMTSAERALAAAQRCHKKVMKERYVEVVPCSTEEMSRVLMGGTLGRSGMSPPPCKLPCLSPPTYTTFQATPTLIPTETAALYPSSALLPAARVPAAPTPVAYYPGPATQLYLNYTAYYPSPPVSPTTVGYLTTPTAALASAPTSVLSQSGALVRMQGVPYTAGMKDLLSVFQAYQLPADDYTSLMPVGDPPRTVLQAPKEWVCL [ESRP2]”, the melting temperature turned out to be 45.2 °C in the data set with HeLa Kyoto [1] (cell cycle stage: G1/S) and 47.7 °C in the data set on HeLa Kyoto [1] (cell cycle stage: mitosis). The “solubility change mitosis (log2)” value with HeLa Kyoto [2] was found to be 0.0705. Moreover, the thermal stability score in the data set on HeLa Kyoto [3] (setting [5]) is 1.55; in the data set on HeLa Kyoto [3] (cell cycle stage: mitosis) it was 2.39. For the same sequence, in the data set on HeLa Kyoto [4], the “solubility in G1/S (log2)” value came to 0.0652.

For the sequence “MTPPRLFWVWLLVAGTQGVNDGDMRLADGGATNQGRVEIFYRGQWGTVCDNLWDLTDASVVCRALGFENATQALGRAAFGQGSGPIMLDEVQCTGTEASLADCKSLGWLKSNCRHERDAGVVCTNETRSTHTLDLSRELSEALGQIFDSQRGCDLSISVNVQGEDALGFCGHTVILTANLEAQALWKEPGSNVTMSVDAECVPMVRDLLRYFYSRRIDITLSSVKCFHKLASAYGARQLQGYCASLFAILLPQDPSFQMPLDLYAYAVATGDALLEKLCLQFLAWNFEALTQAEAWPSVPTDLLQLLLPRSDLAVPSELALLKAVDTWSWGERASHEEVEGLVEKIRFPMMLPEELFELQFNLSLYWSHEALFQKKTLQALEFHTVPFQLLARYKGLNLTEDTYKPRIYTSPTWSAFVTDSSWSARKSQLVYQSRRGPLVKYSSDYFQAPSDYRYYPYQSFQTPQHPSFLFQDKRVSWSLVYLPTIQSCWNYGFSCSSDELPVLGLTKSGGSDRTIAYENKALMLCEGLFVADVTDFEGWKAAIPSALDTNSSKSTSSFPCPAGHFNGFRTVIRPFYLTNSSGVD [LGALS3BP]”, the melting temperature in the data set with HeLa Kyoto [1] (cell cycle stage: G1/S) was found to be 54.5 °C; in the data set with HeLa Kyoto [1] (cell cycle stage: mitosis), 55.9 °C. Further, the “solubility change mitosis (log2)” value in the data set with HeLa Kyoto [2] is -0.127. The results for the thermal stability score in the data set with HeLa Kyoto [3] (setting [5]) and with HeLa Kyoto [3] (cell cycle stage: mitosis) were 1.36 and 2.15, respectively. The “solubility in G1/S (log2)” value with HeLa Kyoto [4] was -0.0572.
